The target in assay [1] is platelet glycoprotein VI (GPVI) on washed human platelets (human) (UniProt Q9HCN6). As to the kind of experiment: cell-based or functional assay.
The target of assay [2] is T1, platelet glycoprotein VI (GPVI) on washed human platelets (human, UniProt Q9HCN6 21-339).
T1 construct: whole, on cells; Native receptor on human platelets; also called platelet GPVI; collagen receptor GPVI
T1 sequence: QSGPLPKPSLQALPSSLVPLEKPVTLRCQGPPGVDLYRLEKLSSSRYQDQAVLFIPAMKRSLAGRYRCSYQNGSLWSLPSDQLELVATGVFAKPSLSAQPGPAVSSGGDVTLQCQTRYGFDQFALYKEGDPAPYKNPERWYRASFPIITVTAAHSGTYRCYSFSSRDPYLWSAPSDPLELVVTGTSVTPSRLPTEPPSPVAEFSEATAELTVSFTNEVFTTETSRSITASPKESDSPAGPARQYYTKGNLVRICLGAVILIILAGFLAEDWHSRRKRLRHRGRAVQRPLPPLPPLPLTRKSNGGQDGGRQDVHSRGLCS
Nature of the assay: flow cytometry on human platelets; inhibition of 6B12 (anti-GPVI) binding.

For assay [3], the target named is T1, platelet glycoprotein VI (GPVI) on …. Nature of the assay: cell-based or functional assay.
For assay [4], the target named is T2, platelet glycoprotein VI (GPVI) on washed human platelets (human), Q9HCN6.
T2 chain: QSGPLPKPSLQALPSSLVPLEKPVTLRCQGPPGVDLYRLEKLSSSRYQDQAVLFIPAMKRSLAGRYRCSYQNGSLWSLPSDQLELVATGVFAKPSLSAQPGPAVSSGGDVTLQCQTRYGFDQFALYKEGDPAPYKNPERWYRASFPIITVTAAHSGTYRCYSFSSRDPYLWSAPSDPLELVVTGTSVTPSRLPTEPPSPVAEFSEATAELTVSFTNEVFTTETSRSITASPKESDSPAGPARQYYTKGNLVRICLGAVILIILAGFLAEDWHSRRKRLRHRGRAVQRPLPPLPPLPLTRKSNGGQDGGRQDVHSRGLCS
As to the kind of experiment: cell-based or functional assay.

“And” between values parts separate entries of the source, which are not always exact repeats. Identical values can stand only once.

Tro-α6 M117A mutant hexapeptide CKWANV gave an Inhibition of the collagen-induced aggregation (%) at 100 µg/ml in assay [1] of 52.9%.
Tro-α6 W116A mutant hexapeptide CKAMNV displayed an Inhibition of the collagen-induced aggregation (%) at 100 µg/ml in assay [1] of 12.3%.
Consider d-form Tro-α6 hexapeptide C(dK)WM(dN)V, for which, in assay [1], the IC50, inhibition of the collagen-induced aggregation is 6.82 µg/ml and 8.75 µM; the Inhibition of the collagen-induced aggregation (%) at 100 µg/ml is 89.4%.
With EEFECLISRTFDNQWLSAPCSDTYSFVCKFEA [recombinant convulxin β subunit C-terminal (CVX β C-terminal 94-125)], the binding result in assay [2] is recorded as “binds”.
In the case of RKWVNY [Agg-α6 (Aggretin) hexapeptide RKWVNY], the “Inhibition of the collagen-induced aggregation (%) at 100 µg/ml” value (“Inhibition … (%) at 100 µg/ml” for short) in assay [3] was determined as 21.7%.
On to CSLLKKETGFRKWFVASCIGKIPFVCKFPPQC [recombinant convulxin α subunit C-terminal (CVX α C-terminal 104-135)], for which, in assay [2], the binding result is given as “binds”.
On to RKWFVA [CVX-α6 (Convulxin) hexapeptide RKWFVA], for which, in assay [3], the “Inhibition … (%) at 100 µg/ml” value was found to be 28.7%.
Consider NQWLSR [Agk--β6 hexapeptide NQWLSR], for which the “Inhibition … (%) at 100 µg/ml” value in assay [3] stood at 24.6%.
In the case of GFCKWMNVAC (modifications not checked) [decapeptide of trowaglerix α subunit (Troα10, …)], in assay [4], the IC50, inhibition of the collagen-induced aggregation was 30.4 µM; the Inhibition of the collagen-induced aggregation (%) at 100 µg/ml is 93.8%; the inhibition on collagen-induced aggregation worked out at 60%.
CKWMNV [hexapeptide of trowaglerix α subunit (Troα6, CKWMNV)]: in assay [3], the “IC50, inhibition of the collagen-induced aggregation” value was 83.4 µg/ml and 107 µM; the “Inhibition … (%) at 100 µg/ml” value was 44.3%.

For the origin of these results see US20140363423A1 (NATIONAL TAIWAN UNIVERSITY, published 2014).
